{"source": "patent US20150160214A1", "about": "“Quantitation of Cellular Adhesion Dynamics Across Immobilized Receptors Under Rheological Shear Flow” (Mayo Foundation for Medical Education and Research, priority 2013, published 2015)", "molecules": {"B1": {"name": "scrambled peptide (QLPTGVLGEPSDAVPTVYEVTPPG) (peptide)", "peptide": "H-QLPTGVLGEPSDAVPTVYEVTPPG-OH", "notes": "Synthetic control peptide, said to have the same amino acid composition as the N-terminal peptide in scrambled order"}}, "key": {"[1]": {"tested_on": "platelet GP1bα", "assay": "Platelet pause times and translocation velocities on immobilized A1 under shear flow, parallel-plate flow chamber (Example 1)", "assay_type": "cell-based, human", "conditions": "5 μM protein immobilized; as a function of shear rate", "excerpt": "(§1) To understand the effect of the N-terminal peptide on the function of the A1-domain of vWF, the protein was expressed with (A1-1238) and without the N-terminal peptide (A1-1261). The inventor used a flow chamber to measure the dynamics of platelet interactions with A1-1238 and A1-1261. Each domain variant was immobilized on glass slides with a modified Cu^2+ chelating chemistry that enabled surface capture via the N-terminally fused histidine tag. This method ensured reproducible capture of the proteins eliminating possible structural issues associated with nonspecific immobilization on plastic or glass. The slides were completely inert to platelets. Next, 1 mL of citrated whole blood followed by Tris buffered saline was perfused at low shear to enable platelets to attach to the surface immobilized domains. After red cells were perfused away with buffer, the translocation of the remaining attached platelets over the surfaces was recorded at each shear rate and the velocities and pause times calculated from the coordinate data of each platelet on the surface as described in the methods. […] In addition, the translocation velocities were increased for A1-1238 relative to A1-1261. To determine if this N-terminal sequence could inhibit the catch bond when free in solution, the inventor incubated surface immobilized A1-1261 with excess free peptide and added the free peptide to 1 mL of whole blood and to our perfusion buffer and performed the assay.\n(§2) Determination of platelet pause times. Determination of platelet pause times A Glycotech† rectangular parallel-plate flow chamber was mounted to slides with a chelated Cu 21 surface obtained from Microsurfaces Inc. # to which the A1-1261 and A1-1238 domains in TBS were immobilized by the 63His-Tag. Citrated whole blood (1 mL) obtained from informed consent of healthy donors with approval from the Baylor College of Medicine institutional review board followed by buffer was perfused through the chamber at 300s21 for A1-1261 and 700s21 for A1-1238 shear rate to attach platelets to the surface immobilized proteins using a syringe driven variable flow rate pump. The shear was increased incrementally and 1 min movies were recorded at 25 frames/s in phase contrast with 232 pixel binning on a Zeiss Axiocam MRm camera attached to a Zeiss Axio Observer D1 inverted microscope. Tracking analysis was performed using Mediacybernetics ImagePro Premier§. The resulting X-Y coordinate data for each platelet track was differentiated into instantaneous velocities using a Savitzky-Golay algorithm (Savitzky:1964) with a five data point window size and a second-order polynomial implemented into a Mathamatica notebook. These platelet tracks were retained for statistical analysis if the platelet was present for at least 1 s and travelled a total distance greater than 1 lm. Distance travelled in pixels was converted to lm given the camera pixel size=6.45 μm^2, pixel binning, and microscope magnification=400×. Pause times were determined by the amount of time (seconds) a platelets velocity was =0±0.13 μm/s, within the noise. Pause times for all platelet tracks are reported as the mean of the medians. Examples of this analysis for individual platelets and for multiple platelets are provided in the Supporting Information.\n(§3) Frame by frame platelet trajectory analysis. Tracking coordinates of individual platelets in units of pixels were exported from ImagePro Premier as a text file and imported into a Mathematica notebook that calculates a Savitzky-Golay first derivative of the total distance traveled over time (Savitzky:1964). The distance was calculated from the X and Y coordinates with the following equation.\n(§4) Pause times were determined from the length of time the platelet velocity remained within 0±4 pixel/sec=0.129 μm/sec as illustrated in FIG. 8B. Median pause times were calculated from velocity time profiles for all platelet tracks, stored in a list and translated to histograms for multiple platelets. […]"}, "[2]": {"assay": "Temperature-induced unfolding by fluorescence and CD, irreversible models (Example 1)", "assay_type": "physicochemical", "description": "A1-1261 and A1-1238 were thermally unfolded using intrinsic protein tyrosine and tryptophan fluorescence with an excitation λ=280 nm and emission λ=359 nm and CD monitored at λ=222 nm. […] As the scan rate increases, the midpoint of the transition (apparent TM) also increases.\nThermal transitions were analyzed in terms of the observed midpoint of the transition, apparent TM, and also by a two-state irreversible model or a three-state irreversible model as described in the Supplement and the calculated parameters are summarized in FIGS. 5A to 5D. […] If the protein unfolding was at equilibrium and reversible, this apparent TM would remain constant at all scan rates. Extrapolation of the TM to a scan rate of 0° Celsius/min provides an indication of where reversible unfolding would occur under equilibrium conditions; 50° Celsius for A1-1238 and 48° Celsius for A1-1261 from both CD and fluorescence data. For the second transition observed by fluorescence that occurs with A1-1238, the TM extrapolates to about 73° Celsius in the limit of zero scan rate. Analysis by the two-state and three-state irreversible models yields an R^2>0.99 for both fluorescence and CD and a transition temperature, T*, that is independent of the temperature scan rate. In addition, the enthalpies of the transitions are independent of scan rate within experimental error FIG. 5B. FIGS. 5C and 5D show the resulting average T* and ΔHT*^‡±the standard deviation obtained from the fitting of the primary thermal transitions in FIG. 4A to 4D for CD and fluorescence and a total average for both methods. […] However, the unfolding enthalpy was statistically larger for A1-1238 (250±15 kJ/mol) than for A1-1261 (204±10 kJ/mol). The average T* and ΔHT*^‡ observed in the second fluorescence transition of A1-1238 is 89.1±2.2° Celsius and 360±14 kJ/mol.\n(§5) Prior to all spectroscopic thermal scans, protein samples were equilibrated at 10° Celsius for 15 min to obtain a stable baseline. CD thermal scans between 10 and 95° Celsius were recorded at λ=222 nm using a protein concentration of 1 or 2 μM in a 1 cm quartz cell under moderate stirring. Scan rates were 0.5, 1.0, 1.5 and 2.0° Celsius/min. Integration time for each data point was 20 s with a 1 nm bandwidth. Fluorescence thermal scans between 10 and 95 Celsius were recorded at an emission λ=359 nm after excitation λ=280 nm or λ=295 nm using 2 μM protein in a 1 cm quartz cell with moderate stirring. Scan rates were 0.4 or 0.6, 0.9, 1.6 and 2.0° Celsius/min. At each temperature, relative fluorescence intensity was collected for 4 s and averaged. Thermal scans in the presence of N-terminal peptide at 2.0° Celsius/min were preceded by 1 h incubations at 20° Celsius with 0.02-300 μM peptide.\nFor an irreversible two-state transition, unfolding is kinetically controlled by a first order rate constant that varies with temperature according to the Arrhenius equation (Atkins:1994). In our analysis the inventor refers to the intermediate state as the final irreversible state for all thermal transitions involving the unfolding of A1-1261 in the absence of peptide when monitored by fluoresence, CD and DSC and for A1-1238 when monitored by CD and DSC. The following equations derived below are equally valid for any two state irreversible transitions The activation energy in going from N->I is ΔG^‡=−RT ln k^‡ and the inventor expands ln k^‡ as a function of temperature in terms of Δβ=(β−β*)=(1/RT−1/RT*) using a Taylor series, where T̂* is the temperature at which ΔG^‡=0."}, "[3]": {"target": "T1, A1-1261 (Homo sapiens, UniProt P04275)", "T1 construct": "A1-1261 (amino acids D1261-P1471); made in house", "assay": "Binding of free N-terminal peptide to A1-1261 from thermal unfolding enthalpy (tryptophan fluorescence)", "conditions": "for Apparent TM of primary transition / Enthalpy of the unfolding transition ΔHT*‡: 2° Celsius/min", "excerpt": "(§6) This would imply a specific interaction between this N-terminal sequence and the A1 domain when covalently linked in sequence. The only way to examine such a stabilization using spectroscopy was the measurement of thermal unfolding via fluorescence. Since the N-terminal peptide also contains a single tyrosine residue, the excitation wavelength was changed to λ=295 nm in order to measure tryptophan fluorescence and the effect of the peptide on the unfolding of the A1-domain was observed indirectly. Thermal scans of 2 μM A1-1261 were performed as a function of increasing amounts of the N-terminal peptide at 2° Celsius/min. […] Thermal scans were also done in the presence of a peptide with the same amino acid composition, but a scrambled sequence. The inset of FIG. 7A compares the raw fluorescence thermal scans in the presence of 300 μM scrambled and N-terminal peptides. Unfolding in the presence of excess scrambled peptide was equivalent to unfolding in the absence of either peptide. […] Fitting the enthalpy data to a simple single site binding model yields a dissociation constant of ≈46±6 μM.\nas §5\nFor the thermal unfolding studies in the presence of peptide, the inventor treated the change in enthalpy of unfolding, ΔHT*^‡ as an observable directly proportional to the degree of binding, X, because the T* was not dependent on peptide concentration.\nFor the simple single site binding model, A1+P<->A1P, where P is the peptide, the degree of binding is given by\nwhere K is the binding affinity and the free peptide, [P], concentration is given in terms of the total protein, A1T, and peptide, PT, concentrations."}, "[4]": {"target": "T2, platelet GP1bα (Homo sapiens)", "T2 construct": "perfused at low shear to enable platelets to attach to the surface immobilized domains; endogenous in cells; host or cells: platelets in citrated whole blood of healthy donors", "assay": "Platelet pause times and translocation velocities on immobilized A1 under shear flow, parallel-plate flow chamber (Example 1)", "assay_type": "cell-based", "conditions": "300 μM peptide incubated with immobilized A1-1261; 66 μM in whole blood and buffer", "excerpt": "as §1, §2, §3, §4"}, "[5]": {"target": "T3, platelet GP1bα (Homo sapiens, UniProt P04275)", "T3 construct": "perfused at low shear to enable platelets to attach to the surface immobilized domains; endogenous in cells; host or cells: platelets in citrated whole blood of healthy donors", "assay": "Platelet pause times and translocation velocities on immobilized A1 under shear flow, parallel-plate flow chamber (Example 1)", "assay_type": "cell-based", "conditions": "free peptide added", "excerpt": "as §1, §2, §3, §4"}, "[6]": {"target": "T4, Recombinant human vWF A1-1261 (amino acids D1261-P1471), N-terminal truncated variant (human, UniProt P04275 1261-1471)", "T4 construct": "Lacks the linker residues Q1238-E1260; also called truncated A1", "assay": "thermal unfolding of 2 µM A1-1261, tryptophan fluorescence at 359 nm (excitation 295 nm)", "excerpt": "as §6, with “indirectly.” for “indirectly. Thermal scans of 2 μM A1-1261 were performed as a function of increasing amounts of the N-terminal peptide at 2° Celsius/min.”"}, "[7]": {"conditions": "A1-1261 in presence of free N-terminal peptide"}}, "data": [{"molecule": "A1-1261: N-terminal truncated recombinant human vWF A1 domain, amino acids D1261-P1471, with N-terminal 6×His-Tag", "values": [{"measurement": "Platelet pause times on immobilized domain (comparison)", "setting": "[1]", "value": "longer pause times than A1-1238"}, {"measurement": "Average T*, peptide-induced second fluorescence transition", "setting": "[2]; [7]", "value": "90.1±8.5", "unit": "° Celsius"}, {"measurement": "Average ΔHT*‡, peptide-induced second fluorescence transition", "setting": "[2]; [7]", "value": "33.9 ± 8.87", "unit": "kcal/mol"}, {"measurement": "Apparent TM extrapolated to a scan rate of 0° Celsius/min, primary transition", "setting": "[2]; CD and fluorescence data", "value": 48, "unit": "° Celsius"}, {"measurement": "Transition temperature T*, primary unfolding transition", "setting": "[2]; average of CD and fluorescence", "value": "64.5±0.9", "unit": "° Celsius"}, {"measurement": "Unfolding enthalpy ΔHT*‡, primary unfolding transition", "setting": "[2]; average of CD and fluorescence", "value": "48.8 ± 2.39", "unit": "kcal/mol"}, {"measurement": "Apparent TM of primary transition", "setting": "[3]; 2 μM A1-1261, absence of peptide, excitation 295 nm", "value": 53, "unit": "° Celsius"}, {"measurement": "Enthalpy of the unfolding transition ΔHT*‡", "setting": "[3]; 2 μM A1-1261, low end of N-terminal peptide titration", "value": "≈ 197 kJ/mol"}, {"measurement": "Enthalpy of the unfolding transition ΔHT*‡", "setting": "[3]; 2 μM A1-1261, saturating N-terminal peptide", "value": "≈ 242 kJ/mol"}, {"measurement": "Apparent TM of primary transition", "setting": "[3]; 2 μM A1-1261, saturating concentrations of N-terminal peptide", "value": 55.5, "unit": "° Celsius"}]}, {"molecule": "QLPTGVLGEPSDAVPTVYEVTPPG (SEQ ID NO.:2) [scrambled peptide, reference compound]", "values": [{"measurement": "Effect of free peptide on platelet pause times on immobilized A1-1261", "setting": "[4]", "value": "did not significantly change the pause times or translocation velocities"}, {"measurement": "Effect of free peptide on platelet pause times or translocation velocities on immobilized A1-1238", "setting": "[5]", "value": "did not significantly change the pause times or translocation velocities"}, {"measurement": "Effect of peptide on unfolding enthalpy of A1-1261", "setting": "[3]; saturating peptide concentrations", "value": "did not change the unfolding enthalpy"}]}, {"molecule": "B1", "values": [{"measurement": "binding result", "setting": "[6]", "value": "no binding (tested: 300 µM)"}]}]}
